From patent US20100310635A1, “Compositions and Methods for Regulating T-Cell Activity” (priority 2007, published 2010)
“Also recorded” adds a separate entry of the source.

Tests used:
[1] = test system: CD4+CD25− Teff cell proliferation; experiment: Suppression assay: suppression of Teff cell proliferation by transduced CD4+ cells expressing Foxp3 forms; format: cell-based, mouse; conditions: retrovirally transduced CD4+ cells expressing the Foxp3 form, co-cultured with CFSE-labeled CD4+CD25− T cells, 72 hr
Experimental: Suppression assays—CD4+CD25+ (T-reg) and CD4+CD25− (T-eff) T cell and APC are isolated with magnetic beads following the manufacturer's instructions (Miltenyi). In some cases, 5×10^4 CD4+CD25− T cells were labeled with CFSE and stimulated with CD3 mAb (1 μg/ml) in the presence of irradiated syngeneic APC and varying ratios of activated CD4+ cells that had been transduced with different Foxp3 constructs. […] After 72 hours culture, cells were harvested and CD4+CD25− T cell proliferation was quantified by flow cytometry (Cyan) based on carboxylfluorescein diacetate succininyl ester (CFSE) profile of dividing effector T cells at 72 hr. Absolute numbers of effector T cells were determined by adding equal numbers of Dynabeads to each sample, and during FACS analysis gates were drawn on Dynabeads and collection time was based on set number of bead events for each sample. […]
WT Foxp3 and engineered Foxp3 mutants (N-terminal cleaved, C-terminal cleaved and N -plus C-terminal-cleaved (double-cleaved)) were retrovirally expressed in CD4+ cells and the ability of the transduced cells to suppress Teff cell proliferation was measured.

[2] = test system: RAG−/− (C57BL/6) mice; experiment: Adoptive transfer model of IBD; format: in vivo, mouse; conditions: for weight loss: 1×10^5 transduced Thy1.1+CD4+ cells plus 1×10^6 CD4+CD25− Teff cells i.p., weights monitored for 45 days; for histology of duodenal sections: duodenal samples collected at day 45, H&E
From the text: Adoptive transfer model of IBD—CD4+CD25− T cells were isolated from mesenteric lymph nodes using magnetic beads (Miltenyi) to >95% purity (by flow cytometry). CD4+CD25− T cells (1×10^6 cells) were co-injected i.p. into RAG1−/− (C57BL/6) mice along with Thy1.1+CD4+CD25− cells transduced with WT or mutated Foxp3 ([…]). Mice were monitored biweekly for clinical evidence of disease, including weight loss and stool consistency. RAG1−/− mice on the C57BL/6 background were purchased from Taconic Laboratory. Mice were housed in specific pathogen-free conditions, and used for studies approved by the institutional animal care and use committee of the Children's Hospital of Philadelphia.
Pathology—Gut samples were paraffin embedded and stained by H&E, or snap-frozen and stained by immunoperoxidase using mAbs to Foxp3 and T cell subsets (73).
To test the effects of the different Foxp3 mutants in vivo, RAG−/− (C57BL/6) mice were injected with 1×10^5 transduced Thy1.1+CD4+ cells expressing either WT-Foxp3 or a mutant Foxp3 (RKKR• (SEQ ID NO: 179), QNKR• (SEQ ID NO: 180), QNKR-- (SEQ ID NO: 180)) or empty vector (control), plus 1×10^6 CD4+CD25− Teff cells. Additional mice received CD4+CD25− Teff cells alone. The weights of the animals in each group were monitored weekly for 45 days.

Molecule	suppression of Teff cell proliferation [1]	survival ([2]; 1×10^5 transduced CD4+ cells plus 1×10^6 CD4+CD25− Teff cells, 45 days)	weight loss [2]	histology of duodenal sections [2]
double-cleaved Foxp3: engineered Foxp3 lacking N-terminal 51-aa and C-terminal tail (366-aa) (protein) SGAHTSSSLNPLPPSQLQLPTVPLVMVAPSGARLGPSPHLQALLQDRPHFMHQLSTVDAHAQTPVLQVRPLDNPAMISLPPPSAATGVFSLKARPGLPPGINVASLEWVSREPALLCTFPRSGTPRKDSNLLAAPQGSYPLLANGVCKWPGCEKVFEEPEEFLKHCQADHLLDEKGKAQCLLQREVVQSLEQQLELEKEKLGAMQAHLAGKMALAKAPSVASMDKSSCCIVATSTQGSVLPAWSAPREAPDGGLFAVRRHLWGSHGNSSFPEFFHNMDYFKYHNMRPPFTYATLIRWAILEAPERQRTLNEIYHWFTRMFAYFRNHPATWKNAIRHNLSLHKCFVRVESEKGAVWTVDEFEFRKKR	suppressed Teff cell proliferation stronger than both WTFoxp3 and N-terminal-cleaved Foxp3	–	–	–
C-cleaved PNNW mutant: short 417-aa Foxp3 in which the last four amino acids RKKR are replaced with PNNW (protein, UniProt Q99JB6 1-417, looked up, variant R414P K415N K416N R417W) MPNPRPAKPMAPSLALGPSPGVLPSWKTAPKGSELLGTRGSGGPFQGRDLRSGAHTSSSLNPLPPSQLQLPTVPLVMVAPSGARLGPSPHLQALLQDRPHFMHQLSTVDAHAQTPVLQVRPLDNPAMISLPPPSAATGVFSLKARPGLPPGINVASLEWVSREPALLCTFPRSGTPRKDSNLLAAPQGSYPLLANGVCKWPGCEKVFEEPEEFLKHCQADHLLDEKGKAQCLLQREVVQSLEQQLELEKEKLGAMQAHLAGKMALAKAPSVASMDKSSCCIVATSTQGSVLPAWSAPREAPDGGLFAVRRHLWGSHGNSSFPEFFHNMDYFKYHNMRPPFTYATLIRWAILEAPERQRTLNEIYHWFTRMFAYFRNHPATWKNAIRHNLSLHKCFVRVESEKGAVWTVDEFEFPNNW	loss in the suppression ability	–	–	–
WT-Foxp3: wild-type mouse Foxp3, 429-aa, retrovirally expressed in CD4+ T cells (protein) MPNPRPAKPMAPSLALGPSPGVLPSWKTAPKGSELLGTRGSGGPFQGRDLRSGAHTSSSLNPLPPSQLQLPTVPLVMVAPSGARLGPSPHLQALLQDRPHFMHQLSTVDAHAQTPVLQVRPLDNPAMISLPPPSAATGVFSLKARPGLPPGINVASLEWVSREPALLCTFPRSGTPRKDSNLLAAPQGSYPLLANGVCKWPGCEKVFEEPEEFLKHCQADHLLDEKGKAQCLLQREVVQSLEQQLELEKEKLGAMQAHLAGKMALAKAPSVASMDKSSCCIVATSTQGSVLPAWSAPREAPDGGLFAVRRHLWGSHGNSSFPEFFHNMDYFKYHNMRPPFTYATLIRWAILEAPERQRTLNEIYHWFTRMFAYFRNHPATWKNAIRHNLSLHKCFVRVESEKGAVWTVDEFEFRKKRSQRPNKCSNPCP	–	survived	minor weight loss; also recorded: benefit	mild cell mononuclear cell infiltration and edema within villi; also recorded: mild mononuclear cell recruitment and villous edema
QNKR•: short 417-aa Foxp3 mutant without C-terminal tail, terminating with QNKR (protein, UniProt Q99JB6 1-417, looked up, variant R414Q K415N) MPNPRPAKPMAPSLALGPSPGVLPSWKTAPKGSELLGTRGSGGPFQGRDLRSGAHTSSSLNPLPPSQLQLPTVPLVMVAPSGARLGPSPHLQALLQDRPHFMHQLSTVDAHAQTPVLQVRPLDNPAMISLPPPSAATGVFSLKARPGLPPGINVASLEWVSREPALLCTFPRSGTPRKDSNLLAAPQGSYPLLANGVCKWPGCEKVFEEPEEFLKHCQADHLLDEKGKAQCLLQREVVQSLEQQLELEKEKLGAMQAHLAGKMALAKAPSVASMDKSSCCIVATSTQGSVLPAWSAPREAPDGGLFAVRRHLWGSHGNSSFPEFFHNMDYFKYHNMRPPFTYATLIRWAILEAPERQRTLNEIYHWFTRMFAYFRNHPATWKNAIRHNLSLHKCFVRVESEKGAVWTVDEFEFQNKR	–	–	negligible weight loss; also recorded: significantly more effective in controlling weight loss	minor mononuclear cell infiltration and edema
QNKR--: 429-aa Foxp3 with RKKR replaced by QNKR, intact C-terminal tail resistant to proteolytic cleavage (protein, UniProt Q99JB6 1-429, looked up, variant R414Q K415N) Forkhead box protein P3: MPNPRPAKPMAPSLALGPSPGVLPSWKTAPKGSELLGTRGSGGPFQGRDLRSGAHTSSSLNPLPPSQLQLPTVPLVMVAPSGARLGPSPHLQALLQDRPHFMHQLSTVDAHAQTPVLQVRPLDNPAMISLPPPSAATGVFSLKARPGLPPGINVASLEWVSREPALLCTFPRSGTPRKDSNLLAAPQGSYPLLANGVCKWPGCEKVFEEPEEFLKHCQADHLLDEKGKAQCLLQREVVQSLEQQLELEKEKLGAMQAHLAGKMALAKAPSVASMDKSSCCIVATSTQGSVLPAWSAPREAPDGGLFAVRRHLWGSHGNSSFPEFFHNMDYFKYHNMRPPFTYATLIRWAILEAPERQRTLNEIYHWFTRMFAYFRNHPATWKNAIRHNLSLHKCFVRVESEKGAVWTVDEFEFQNKRSQRPNKCSNPCP	–	–	did significantly worse	marked mononuclear cell infiltration of villous processes; also recorded: extensive mononuclear cell recruitment
